# B1: RpSP-D multimers (natural protein)
# chain: AEMKTYSQRAVANACALVMCSPMENGLPGRDGRDGREGPRGEKGDPGLPGAVGRAGMPGLAGPVGPKGDNGSTGEPGAKGDIGPCGPPGPPGIPGPAGKEGPSGQQGNIGPPGTPGPKGETGPKGEVGALGMQGSTGARGPAGLKGERGAPGERGAPGSAGAAGPAGATGPQGPSGARGPPGLKGDRGPPGERGAKGESGLPGITALRQQVETLQGQVQRLQKAFSQYKKVELFPNGRGVGEKIFKTGGFEKTFQDAQQVCTQAGGQMASPRSETENEALSQLVTAQNKAAFLSMTDIKTEGNFTYPTGEPLVYANWAPGEPNNNGGSSGAENCVEIFPNGKWNDKACGELRLVICEF
# B2: RpSP-D trimers (natural protein)
# chain: AEMKTYSQRAVANACALVMCSPMENGLPGRDGRDGREGPRGEKGDPGLPGAVGRAGMPGLAGPVGPKGDNGSTGEPGAKGDIGPCGPPGPPGIPGPAGKEGPSGQQGNIGPPGTPGPKGETGPKGEVGALGMQGSTGARGPAGLKGERGAPGERGAPGSAGAAGPAGATGPQGPSGARGPPGLKGDRGPPGERGAKGESGLPGITALRQQVETLQGQVQRLQKAFSQYKKVELFPNGRGVGEKIFKTGGFEKTFQDAQQVCTQAGGQMASPRSETENEALSQLVTAQNKAAFLSMTDIKTEGNFTYPTGEPLVYANWAPGEPNNNGGSSGAENCVEIFPNGKWNDKACGELRLVICEF
# Biological target: HA of all the influenza A/H3N2 viruses tested with RpSP-D multimers and trimers
Binder,HI assay: minimal inhibitory concentration of RpSP-D multimers [ng/100 µl],HI assay: minimal inhibitory concentration of RpSP-D trimers [ng/100 µl]
B1,8.7,–
B2,–,124
